Test results reported in patent US20030087407A1.

Columns and labels:
[1] = molecular target: amyloid β-peptide 1-40 (Aβ1-40) (UniProt P05067); test: cell-based or functional assay
[2] = molecular target: amyloid β-peptide 1-40 (Aβ1-40) (UniProt P05067); test: quenching of intrinsic Tyr10 fluorescence of Aβ1-40 in solution by added iAβ, non-linear regression to a rectangular hyperbola
[3] = molecular target: amyloid β-peptide 1-40 (Aβ1-40) (UniProt P05067); test: quenching of intrinsic Tyr10 fluorescence of Aβ1-40 in solution at approximately 4 µM iAβ
[4] = molecular target: amyloid β-peptide 1-42 (Aβ1-42) (UniProt P05067); test: cell-based or functional assay

% of amyloid remaining, ThT fluorometric assay, 10-fold molar excess of peptide, 2 days [1]: 25.5 % of amyloid | amyloid formation, thioflavine T fluorometric assay, 24 h, 5-fold molar excess of iAβ (% of amyloid detectable in the absence of inhibitor) [1]: 33.9% | amyloid formation, thioflavine T fluorometric assay, 24 h, 20-fold molar excess of iAβ (% of amyloid detectable in the absence of inhibitor) [1]: 13.7% | Kd [2]: 75.9 nM | maximum quenching of the total fluorescence [3]: 12.6% | % of amyloid remaining, ThT fluorometric assay, 10-fold molar excess of peptide, 2 days [4]: 57.9 % of amyloid | inhibition of amyloid formation, thioflavine T fluorometric assay, 24 h, 5-fold molar excess of iAβ (% of inhibition) [4]: 28.7 | inhibition of amyloid formation, thioflavine T fluorometric assay, 24 h, 20-fold molar excess of iAβ (% of inhibition) [4]: 72.3 | inhibition of amyloid formation, thioflavine T fluorometric assay, 24 h, 40-fold molar excess of iAβ (% of inhibition) [4]: 80.6 | reduction of preformed fibrils, thioflavine T fluorometric assay, 24 h, 40-fold molar excess of iAβ (% fibril reduction) [4]: 51
B1: inhibitor of Aβ fibrillogenesis peptide (iAβ) (peptide)
chain: RDLPFFPVPID
